In article PMC11996608 (Nature structural & molecular biology, 2025):

How the values were obtained:
Eco RNAP β subunit = Eco RNAP β subunit (Escherichia coli, UniProt P0A8V2 1-1342); experiment: cryo-EM structure
[1] = molecular target: Eco RNAP β' subunit (β'-PPX-His10) (Escherichia coli, UniProt P0A8T7 1-1407); experiment: cryo-EM structure
Chain of Eco RNAP β' subunit (β'-PPX-His10) (P0A8T7 whole entry): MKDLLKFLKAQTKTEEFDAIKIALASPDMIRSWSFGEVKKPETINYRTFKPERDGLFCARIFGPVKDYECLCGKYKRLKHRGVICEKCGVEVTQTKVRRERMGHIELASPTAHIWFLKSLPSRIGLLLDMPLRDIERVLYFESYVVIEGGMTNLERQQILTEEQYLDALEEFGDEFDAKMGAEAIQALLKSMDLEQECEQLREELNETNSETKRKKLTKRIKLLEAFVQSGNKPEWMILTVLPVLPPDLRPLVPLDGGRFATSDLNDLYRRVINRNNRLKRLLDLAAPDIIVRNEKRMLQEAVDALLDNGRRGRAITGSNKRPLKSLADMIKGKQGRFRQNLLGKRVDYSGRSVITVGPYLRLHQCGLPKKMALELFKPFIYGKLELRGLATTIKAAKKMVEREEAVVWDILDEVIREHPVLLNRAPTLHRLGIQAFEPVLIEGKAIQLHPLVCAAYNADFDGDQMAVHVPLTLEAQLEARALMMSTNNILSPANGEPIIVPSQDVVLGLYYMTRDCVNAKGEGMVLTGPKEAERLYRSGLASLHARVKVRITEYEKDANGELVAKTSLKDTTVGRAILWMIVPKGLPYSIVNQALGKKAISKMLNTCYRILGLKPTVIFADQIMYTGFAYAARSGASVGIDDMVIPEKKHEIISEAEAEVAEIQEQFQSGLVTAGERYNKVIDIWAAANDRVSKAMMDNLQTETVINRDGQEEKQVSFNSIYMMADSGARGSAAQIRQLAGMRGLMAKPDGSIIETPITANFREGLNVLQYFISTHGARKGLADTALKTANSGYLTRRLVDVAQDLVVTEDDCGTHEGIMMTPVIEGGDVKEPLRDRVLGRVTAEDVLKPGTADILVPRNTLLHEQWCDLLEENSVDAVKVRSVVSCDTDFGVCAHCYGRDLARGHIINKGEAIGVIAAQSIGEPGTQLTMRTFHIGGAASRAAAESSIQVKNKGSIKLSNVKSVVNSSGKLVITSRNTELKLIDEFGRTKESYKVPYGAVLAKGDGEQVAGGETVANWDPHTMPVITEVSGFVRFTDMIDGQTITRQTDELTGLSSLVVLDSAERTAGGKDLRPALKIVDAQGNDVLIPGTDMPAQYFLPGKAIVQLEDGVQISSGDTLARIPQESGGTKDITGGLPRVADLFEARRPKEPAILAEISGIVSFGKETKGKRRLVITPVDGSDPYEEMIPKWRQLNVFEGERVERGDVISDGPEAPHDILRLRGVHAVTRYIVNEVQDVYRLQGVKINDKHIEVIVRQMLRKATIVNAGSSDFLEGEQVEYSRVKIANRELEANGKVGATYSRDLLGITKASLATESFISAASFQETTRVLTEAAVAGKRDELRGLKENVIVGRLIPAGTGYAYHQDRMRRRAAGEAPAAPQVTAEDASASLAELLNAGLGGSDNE

Chain of Eco RNAP β subunit (P0A8V2 whole entry): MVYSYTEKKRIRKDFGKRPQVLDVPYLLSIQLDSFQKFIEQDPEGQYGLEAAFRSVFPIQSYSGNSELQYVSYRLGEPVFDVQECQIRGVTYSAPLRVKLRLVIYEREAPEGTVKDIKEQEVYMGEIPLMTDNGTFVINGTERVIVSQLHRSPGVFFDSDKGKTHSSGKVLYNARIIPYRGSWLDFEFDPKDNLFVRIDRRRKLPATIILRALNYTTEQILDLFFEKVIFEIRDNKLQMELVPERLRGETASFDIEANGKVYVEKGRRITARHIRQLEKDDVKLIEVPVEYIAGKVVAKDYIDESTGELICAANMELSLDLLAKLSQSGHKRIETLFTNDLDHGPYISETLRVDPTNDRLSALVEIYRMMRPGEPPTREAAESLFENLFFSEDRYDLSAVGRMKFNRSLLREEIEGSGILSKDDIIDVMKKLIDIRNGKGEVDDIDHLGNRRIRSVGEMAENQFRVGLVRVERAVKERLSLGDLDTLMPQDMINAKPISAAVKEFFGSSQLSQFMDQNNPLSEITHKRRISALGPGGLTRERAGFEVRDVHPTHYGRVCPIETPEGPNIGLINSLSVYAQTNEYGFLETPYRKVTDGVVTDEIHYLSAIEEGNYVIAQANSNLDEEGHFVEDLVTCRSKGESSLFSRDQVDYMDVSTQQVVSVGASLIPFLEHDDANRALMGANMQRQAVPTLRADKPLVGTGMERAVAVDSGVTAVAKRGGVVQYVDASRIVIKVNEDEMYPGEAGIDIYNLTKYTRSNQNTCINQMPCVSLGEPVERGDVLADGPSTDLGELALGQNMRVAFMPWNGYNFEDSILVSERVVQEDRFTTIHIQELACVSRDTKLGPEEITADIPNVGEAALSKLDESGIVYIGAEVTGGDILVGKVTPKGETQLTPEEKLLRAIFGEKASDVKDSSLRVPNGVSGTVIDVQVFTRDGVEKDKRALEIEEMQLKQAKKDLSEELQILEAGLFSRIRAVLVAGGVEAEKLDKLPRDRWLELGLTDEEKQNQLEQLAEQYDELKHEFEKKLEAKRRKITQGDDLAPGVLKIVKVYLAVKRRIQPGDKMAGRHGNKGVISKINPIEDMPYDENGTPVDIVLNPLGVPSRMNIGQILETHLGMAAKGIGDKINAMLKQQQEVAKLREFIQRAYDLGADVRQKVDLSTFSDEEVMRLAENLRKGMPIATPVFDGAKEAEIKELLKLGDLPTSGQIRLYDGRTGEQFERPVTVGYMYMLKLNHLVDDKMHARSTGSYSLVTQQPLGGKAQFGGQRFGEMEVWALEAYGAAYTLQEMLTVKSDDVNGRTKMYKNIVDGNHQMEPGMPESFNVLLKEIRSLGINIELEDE

B1: Eco RapA (N-terminally His6-tagged full-length RapA) (enzyme, Escherichia coli, UniProt P60240 1-968, looked up)
chain: MPFTLGQRWISDTESELGLGTVVAVDARTVTLLFPSTGENRLYARSDSPVTRVMFNPGDTITSHDGWQMQVEEVKEENGLLTYIGTRLDTEESGVALREVFLDSKLVFSKPQDRLFAGQIDRMDRFALRYRARKYSSEQFRMPYSGLRGQRTSLIPHQLNIAHDVGRRHAPRVLLADEVGLGKTIEAGMILHQQLLSGAAERVLIIVPETLQHQWLVEMLRRFNLRFALFDDERYAEAQHDAYNPFDTEQLVICSLDFARRSKQRLEHLCEAEWDLLVVDEAHHLVWSEDAPSREYQAIEQLAEHVPGVLLLTATPEQLGMESHFARLRLLDPNRFHDFAQFVEEQKNYRPVADAVAMLLAGNKLSNDELNMLGEMIGEQDIEPLLQAANSDSEDAQSARQELVSMLMDRHGTSRVLFRNTRNGVKGFPKRELHTIKLPLPTQYQTAIKVSGIMGARKSAEDRARDMLYPERIYQEFEGDNATWWNFDPRVEWLMGYLTSHRSQKVLVICAKAATALQLEQVLREREGIRAAVFHEGMSIIERDRAAAWFAEEDTGAQVLLCSEIGSEGRNFQFASHMVMFDLPFNPDLLEQRIGRLDRIGQAHDIQIHVPYLEKTAQSVLVRWYHEGLDAFEHTCPTGRTIYDSVYNDLINYLASPDQTEGFDDLIKNCREQHEALKAQLEQGRDRLLEIHSNGGEKAQALAESIEEQDDDTNLIAFAMNLFDIIGINQDDRGDNMIVLTPSDHMLVPDFPGLSEDGITITFDREVALAREDAQFITWEHPLIRNGLDLILSGDTGSSTISLLKNKALPVGTLLVELIYVVEAQAPKQLQLNRFLPPTPVRMLLDKNGNNLAAQVEFETFNRQLNAVNRHTGSKLVNAVQQDVHAILQLGEAQIEKSARALIDAARNEADEKLSAELSRLEALRAVNPNIRDDELTAIESNRQQVMESLDQAGWRLDALRLIVVTHQ
binding result (Eco RNAP β subunit): binds
binding result [1]: binds
